Reference: publication PMC11955279, “The Molecular Mechanism of Interaction Between [sequence]3 and APETALA1 in Arabidopsis thaliana” (Plant Direct, 2025)

Target: the molecule itself
Assay: native gel or EMSA; chemiluminescent EMSA; purified protein bound to the biotin-labelled AP1 probe (single CArG cassette) at room temperature; dimer band on the DNA probe

B1: AtSEP3, wild type, recombinant GST-tagged protein (natural protein, Arabidopsis thaliana, UniProt O22456 2-251, looked up)
chain: GRGRVELKRIENKINRQVTFAKRRNGLLKKAYELSVLCDAEVALIIFSNRGKLYEFCSSSSMLRTLERYQKCNYGAPEPNVPSREALAVELSSQQEYLKLKERYDALQRTQRNLLGEDLGPLSTKELESLERQLDSSLKQIRALRTQFMLDQLNDLQSKERMLTETNKTLRLRLADGYQMPLQLNPNQEEVDHYGRHHHQQQQHSQAFFQPLECEPILQIGYQGQQDGMGAGPSVNNYMLGWLPYDTNSI
notes: also called wild-type SEP3 protein; source: E. coli BL-21 (DE3), pGEX-4T-3, purified (GST-tagged protein purification kit)
  binding result: binds
